According to publication PMC10981688 (2024):

Target: recombinant human PCSK9 with 6x His tag (proprotein convertase subtilisin/kexin type-9) (human, UniProt Q8NBP7 31-692)
Assay: BLI

koff: 0.00132 s⁻¹
B1: recombinant human CAP1 (adenylyl cyclase-associated protein 1) (natural protein)
chain: MADMQNLVERLERAVGRLEAVSHTSDMHRGYADSPSKAGAAPYVQAFDSLLAGPVAEYLKISKEIGGDVQKHAEMVHTGLKLERALLVTASQCQQPAENKLSDLLAPISEQIKEVITFREKNRGSKLFNHLSAVSESIQALGWVAMAPKPGPYVKEMNDAAMFYTNRVLKEYKDVDKKHVDWVKAYLSIWTELQAYIKEFHTTGLAWSKTGPVAKELSGLPSGPSAGSCPPPPPPCPPPPPVSTISCSYESASRSSLFAQINQGESITHALKHVSDDMKTHKNPALKAQSGPVRSGPKPFSAPKPQTSPSPKRATKKEPAVLELEGKKWRVENQENVSNLVIEDTELKQVAYIYKCVNTTLQIKGKINSITVDNCKKLGLVFDDVVGIVEIINSKDVKVQVMGKVPTISINKTDGCHAYLSKNSLDCEIVSAKSSEMNVLIPTEGGDFNEFPVPEQFKTLWNGQKLVTTVTEIAG
